{
  "source": "paper PMC12416549",
  "about": "(2024)",
  "target": "T1, TNFR1 (Homo sapiens, UniProt P19438)",
  "T1 chain": "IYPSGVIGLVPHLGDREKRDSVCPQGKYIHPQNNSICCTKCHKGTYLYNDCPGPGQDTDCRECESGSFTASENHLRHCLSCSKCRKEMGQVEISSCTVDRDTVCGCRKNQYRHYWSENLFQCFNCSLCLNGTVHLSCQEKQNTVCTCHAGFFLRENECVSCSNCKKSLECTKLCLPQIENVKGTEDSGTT",
  "assay": "yeast display SC50",
  "data": [
    {"binder": "K103M (designed binder) MTLQELLREEALRRAEAEAFRYALELLAEKFPEQKEYLLDLAEEIESQIRSLSGVDVEDVRKFLDKEWAWVKELLAEHPAELAEVEAARAARLAELRAEVEAMVAA", "values": [
      {"measurement": "apparent Kd (screen)", "result": 0.718, "unit": "nM"}
    ]},
    {"binder": "R92P (designed binder) MTLQELLREEALRRAEAEAFRYALELLAEKFPEQKEYLLDLAEEIESQIRSLSGVDVEDVRKFLDKEWAWVKELLAEHPAELAEVEAARAAPLAELRAEVEAKVAA", "values": [
      {"measurement": "apparent Kd (screen)", "result": 2.25, "unit": "nM"}
    ]},
    {"binder": "A102I (designed binder) MTLQELLREEALRRAEAEAFRYALELLAEKFPEQKEYLLDLAEEIESQIRSLSGVDVEDVRKFLDKEWAWVKELLAEHPAELAEVEAARAARLAELRAEVEIKVAA", "values": [
      {"measurement": "apparent Kd (screen)", "result": 0.956, "unit": "nM"}
    ]},
    {"binder": "V60L (designed binder) MTLQELLREEALRRAEAEAFRYALELLAEKFPEQKEYLLDLAEEIESQIRSLSGVDVEDLRKFLDKEWAWVKELLAEHPAELAEVEAARAARLAELRAEVEAKVAA", "values": [
      {"measurement": "apparent Kd (screen)", "result": 0.593, "unit": "nM"}
    ]},
    {"binder": "L6I (designed binder) MTLQEILREEALRRAEAEAFRYALELLAEKFPEQKEYLLDLAEEIESQIRSLSGVDVEDVRKFLDKEWAWVKELLAEHPAELAEVEAARAARLAELRAEVEAKVAA", "values": [
      {"measurement": "apparent Kd (screen)", "result": 0.539, "unit": "nM"}
    ]},
    {"binder": "L27M (designed binder) MTLQELLREEALRRAEAEAFRYALELMAEKFPEQKEYLLDLAEEIESQIRSLSGVDVEDVRKFLDKEWAWVKELLAEHPAELAEVEAARAARLAELRAEVEAKVAA", "values": [
      {"measurement": "apparent Kd (screen)", "result": 0.593, "unit": "nM"}
    ]},
    {"binder": "R50A (designed binder) MTLQELLREEALRRAEAEAFRYALELLAEKFPEQKEYLLDLAEEIESQIASLSGVDVEDVRKFLDKEWAWVKELLAEHPAELAEVEAARAARLAELRAEVEAKVAA", "values": [
      {"measurement": "apparent Kd (screen)", "result": 0.539, "unit": "nM"}
    ]},
    {"binder": "V104F (designed binder) MTLQELLREEALRRAEAEAFRYALELLAEKFPEQKEYLLDLAEEIESQIRSLSGVDVEDVRKFLDKEWAWVKELLAEHPAELAEVEAARAARLAELRAEVEAKFAA", "values": [
      {"measurement": "apparent Kd (screen)", "result": 0.539, "unit": "nM"}
    ]},
    {"binder": "L27G (designed binder) MTLQELLREEALRRAEAEAFRYALELGAEKFPEQKEYLLDLAEEIESQIRSLSGVDVEDVRKFLDKEWAWVKELLAEHPAELAEVEAARAARLAELRAEVEAKVAA", "values": [
      {"measurement": "apparent Kd (screen)", "result": 0.539, "unit": "nM"}
    ]},
    {"binder": "A105Y (designed binder) MTLQELLREEALRRAEAEAFRYALELLAEKFPEQKEYLLDLAEEIESQIRSLSGVDVEDVRKFLDKEWAWVKELLAEHPAELAEVEAARAARLAELRAEVEAKVYA", "values": [
      {"measurement": "apparent Kd (screen)", "result": 0.79, "unit": "nM"}
    ]},
    {"binder": "V71F (designed binder) MTLQELLREEALRRAEAEAFRYALELLAEKFPEQKEYLLDLAEEIESQIRSLSGVDVEDVRKFLDKEWAWFKELLAEHPAELAEVEAARAARLAELRAEVEAKVAA", "values": [
      {"measurement": "apparent Kd (screen)", "result": 1.69, "unit": "nM"}
    ]},
    {"binder": "A11S (designed binder) MTLQELLREESLRRAEAEAFRYALELLAEKFPEQKEYLLDLAEEIESQIRSLSGVDVEDVRKFLDKEWAWVKELLAEHPAELAEVEAARAARLAELRAEVEAKVAA", "values": [
      {"measurement": "apparent Kd (screen)", "result": 0.956, "unit": "nM"}
    ]},
    {"binder": "R14L (designed binder) MTLQELLREEALRLAEAEAFRYALELLAEKFPEQKEYLLDLAEEIESQIRSLSGVDVEDVRKFLDKEWAWVKELLAEHPAELAEVEAARAARLAELRAEVEAKVAA", "values": [
      {"measurement": "apparent Kd (screen)", "result": 0.956, "unit": "nM"}
    ]},
    {"binder": "K72N (designed binder) MTLQELLREEALRRAEAEAFRYALELLAEKFPEQKEYLLDLAEEIESQIRSLSGVDVEDVRKFLDKEWAWVNELLAEHPAELAEVEAARAARLAELRAEVEAKVAA", "values": [
      {"measurement": "apparent Kd (screen)", "result": 0.539, "unit": "nM"}
    ]},
    {"binder": "R92G (designed binder) MTLQELLREEALRRAEAEAFRYALELLAEKFPEQKEYLLDLAEEIESQIRSLSGVDVEDVRKFLDKEWAWVKELLAEHPAELAEVEAARAAGLAELRAEVEAKVAA", "values": [
      {"measurement": "apparent Kd (screen)", "result": 0.593, "unit": "nM"}
    ]},
    {"binder": "L6G (designed binder) MTLQEGLREEALRRAEAEAFRYALELLAEKFPEQKEYLLDLAEEIESQIRSLSGVDVEDVRKFLDKEWAWVKELLAEHPAELAEVEAARAARLAELRAEVEAKVAA", "values": [
      {"measurement": "apparent Kd (screen)", "result": 22.2, "unit": "nM"}
    ]},
    {"binder": "W68H (designed binder) MTLQELLREEALRRAEAEAFRYALELLAEKFPEQKEYLLDLAEEIESQIRSLSGVDVEDVRKFLDKEHAWVKELLAEHPAELAEVEAARAARLAELRAEVEAKVAA", "values": [
      {"measurement": "apparent Kd (screen)", "result": 2.73, "unit": "nM"}
    ]},
    {"binder": "K35A (designed binder) MTLQELLREEALRRAEAEAFRYALELLAEKFPEQAEYLLDLAEEIESQIRSLSGVDVEDVRKFLDKEWAWVKELLAEHPAELAEVEAARAARLAELRAEVEAKVAA", "values": [
      {"measurement": "apparent Kd (screen)", "result": 1.27, "unit": "nM"}
    ]},
    {"binder": "R13D (designed binder) MTLQELLREEALDRAEAEAFRYALELLAEKFPEQKEYLLDLAEEIESQIRSLSGVDVEDVRKFLDKEWAWVKELLAEHPAELAEVEAARAARLAELRAEVEAKVAA", "values": [
      {"measurement": "apparent Kd (screen)", "result": 1.69, "unit": "nM"}
    ]},
    {"binder": "A11P (designed binder) MTLQELLREEPLRRAEAEAFRYALELLAEKFPEQKEYLLDLAEEIESQIRSLSGVDVEDVRKFLDKEWAWVKELLAEHPAELAEVEAARAARLAELRAEVEAKVAA", "values": [
      {"measurement": "apparent Kd (screen)", "result": 2.25, "unit": "nM"}
    ]},
    {"binder": "E16C (designed binder) MTLQELLREEALRRACAEAFRYALELLAEKFPEQKEYLLDLAEEIESQIRSLSGVDVEDVRKFLDKEWAWVKELLAEHPAELAEVEAARAARLAELRAEVEAKVAA", "values": [
      {"measurement": "apparent Kd (screen)", "result": 0.593, "unit": "nM"}
    ]},
    {"binder": "E99D (designed binder) MTLQELLREEALRRAEAEAFRYALELLAEKFPEQKEYLLDLAEEIESQIRSLSGVDVEDVRKFLDKEWAWVKELLAEHPAELAEVEAARAARLAELRADVEAKVAA", "values": [
      {"measurement": "apparent Kd (screen)", "result": 0.539, "unit": "nM"}
    ]},
    {"binder": "A83H (designed binder) MTLQELLREEALRRAEAEAFRYALELLAEKFPEQKEYLLDLAEEIESQIRSLSGVDVEDVRKFLDKEWAWVKELLAEHPAELHEVEAARAARLAELRAEVEAKVAA", "values": [
      {"measurement": "apparent Kd (screen)", "result": 0.539, "unit": "nM"}
    ]},
    {"binder": "A91C (designed binder) MTLQELLREEALRRAEAEAFRYALELLAEKFPEQKEYLLDLAEEIESQIRSLSGVDVEDVRKFLDKEWAWVKELLAEHPAELAEVEAARACRLAELRAEVEAKVAA", "values": [
      {"measurement": "apparent Kd (screen)", "result": 0.593, "unit": "nM"}
    ]},
    {"binder": "Y37C (designed binder) MTLQELLREEALRRAEAEAFRYALELLAEKFPEQKECLLDLAEEIESQIRSLSGVDVEDVRKFLDKEWAWVKELLAEHPAELAEVEAARAARLAELRAEVEAKVAA", "values": [
      {"measurement": "apparent Kd (screen)", "result": 3, "unit": "nM"}
    ]},
    {"binder": "F20V (designed binder) MTLQELLREEALRRAEAEAVRYALELLAEKFPEQKEYLLDLAEEIESQIRSLSGVDVEDVRKFLDKEWAWVKELLAEHPAELAEVEAARAARLAELRAEVEAKVAA", "values": [
      {"measurement": "apparent Kd (screen)", "result": 0.49, "unit": "nM"}
    ]},
    {"binder": "A42V (designed binder) MTLQELLREEALRRAEAEAFRYALELLAEKFPEQKEYLLDLVEEIESQIRSLSGVDVEDVRKFLDKEWAWVKELLAEHPAELAEVEAARAARLAELRAEVEAKVAA", "values": [
      {"measurement": "apparent Kd (screen)", "result": 0.718, "unit": "nM"}
    ]},
    {"binder": "E18G (designed binder) MTLQELLREEALRRAEAGAFRYALELLAEKFPEQKEYLLDLAEEIESQIRSLSGVDVEDVRKFLDKEWAWVKELLAEHPAELAEVEAARAARLAELRAEVEAKVAA", "values": [
      {"measurement": "apparent Kd (screen)", "result": 0.49, "unit": "nM"}
    ]},
    {"binder": "K66Q (designed binder) MTLQELLREEALRRAEAEAFRYALELLAEKFPEQKEYLLDLAEEIESQIRSLSGVDVEDVRKFLDQEWAWVKELLAEHPAELAEVEAARAARLAELRAEVEAKVAA", "values": [
      {"measurement": "apparent Kd (screen)", "result": 0.653, "unit": "nM"}
    ]},
    {"binder": "R92S (designed binder) MTLQELLREEALRRAEAEAFRYALELLAEKFPEQKEYLLDLAEEIESQIRSLSGVDVEDVRKFLDKEWAWVKELLAEHPAELAEVEAARAASLAELRAEVEAKVAA", "values": [
      {"measurement": "apparent Kd (screen)", "result": 0.653, "unit": "nM"}
    ]},
    {"binder": "A102F (designed binder) MTLQELLREEALRRAEAEAFRYALELLAEKFPEQKEYLLDLAEEIESQIRSLSGVDVEDVRKFLDKEWAWVKELLAEHPAELAEVEAARAARLAELRAEVEFKVAA", "values": [
      {"measurement": "apparent Kd (screen)", "result": 0.653, "unit": "nM"}
    ]},
    {"binder": "L26Y (designed binder) MTLQELLREEALRRAEAEAFRYALEYLAEKFPEQKEYLLDLAEEIESQIRSLSGVDVEDVRKFLDKEWAWVKELLAEHPAELAEVEAARAARLAELRAEVEAKVAA", "values": [
      {"measurement": "apparent Kd (screen)", "result": 0.593, "unit": "nM"}
    ]},
    {"binder": "E73A (designed binder) MTLQELLREEALRRAEAEAFRYALELLAEKFPEQKEYLLDLAEEIESQIRSLSGVDVEDVRKFLDKEWAWVKALLAEHPAELAEVEAARAARLAELRAEVEAKVAA", "values": [
      {"measurement": "apparent Kd (screen)", "result": 0.593, "unit": "nM"}
    ]},
    {"binder": "L82K (designed binder) MTLQELLREEALRRAEAEAFRYALELLAEKFPEQKEYLLDLAEEIESQIRSLSGVDVEDVRKFLDKEWAWVKELLAEHPAEKAEVEAARAARLAELRAEVEAKVAA", "values": [
      {"measurement": "apparent Kd (screen)", "result": 2.48, "unit": "nM"}
    ]},
    {"binder": "L6M (designed binder) MTLQEMLREEALRRAEAEAFRYALELLAEKFPEQKEYLLDLAEEIESQIRSLSGVDVEDVRKFLDKEWAWVKELLAEHPAELAEVEAARAARLAELRAEVEAKVAA", "values": [
      {"measurement": "apparent Kd (screen)", "result": 1.86, "unit": "nM"}
    ]}
  ]
}
